Measured values taken from patent US20080171343A1 (UNIVERSITY OF MANCHESTER, published 2008).

T1: deglycosylated FMOD (bovine, UniProt P13605 19-376, N-linked oligosaccharides (including keratan sulphate) removed with N-glycosidase F)
T1 construct: The same polypeptide as FMOD, without its N-linked glycans; also called N-glycosidase F-treated FMOD
T1 sequence (looked up): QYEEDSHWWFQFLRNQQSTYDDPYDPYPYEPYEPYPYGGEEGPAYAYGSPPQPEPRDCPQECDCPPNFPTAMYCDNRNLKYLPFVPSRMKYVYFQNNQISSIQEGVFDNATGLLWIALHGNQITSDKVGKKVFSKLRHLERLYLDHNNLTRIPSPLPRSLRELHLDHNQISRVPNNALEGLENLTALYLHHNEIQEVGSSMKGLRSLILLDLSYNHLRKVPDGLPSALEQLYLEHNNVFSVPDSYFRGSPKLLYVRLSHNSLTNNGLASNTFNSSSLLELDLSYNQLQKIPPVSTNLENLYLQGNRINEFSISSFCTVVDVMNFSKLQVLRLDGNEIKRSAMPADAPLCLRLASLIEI

T2: fibromodulin (bovine, UniProt P13605 19-376, glycosylated (N-linked oligosaccharides including keratan sulphate), as isolated)
T2 construct: Isolated from tissue; coated on microtitre plates at 10 ug/ml; also called FMOD; untreated (glycosylated) FMOD
T2 sequence (looked up): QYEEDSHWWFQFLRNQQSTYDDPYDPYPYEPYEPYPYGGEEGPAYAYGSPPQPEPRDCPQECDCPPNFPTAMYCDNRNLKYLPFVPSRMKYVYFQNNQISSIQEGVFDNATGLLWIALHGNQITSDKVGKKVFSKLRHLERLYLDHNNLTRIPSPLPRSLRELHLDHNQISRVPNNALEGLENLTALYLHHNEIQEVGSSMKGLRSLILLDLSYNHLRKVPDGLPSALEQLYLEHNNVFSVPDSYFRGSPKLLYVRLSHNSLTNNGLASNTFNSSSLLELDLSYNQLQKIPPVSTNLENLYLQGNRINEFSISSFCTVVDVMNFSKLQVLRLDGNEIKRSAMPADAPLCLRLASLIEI

T3: C-reactive protein (UniProt P02741 19-224)
T3 construct: Bought; Coated on microtitre plates at 10 ug/ml; also called CRP; recombinant CRP
T3 sequence (looked up): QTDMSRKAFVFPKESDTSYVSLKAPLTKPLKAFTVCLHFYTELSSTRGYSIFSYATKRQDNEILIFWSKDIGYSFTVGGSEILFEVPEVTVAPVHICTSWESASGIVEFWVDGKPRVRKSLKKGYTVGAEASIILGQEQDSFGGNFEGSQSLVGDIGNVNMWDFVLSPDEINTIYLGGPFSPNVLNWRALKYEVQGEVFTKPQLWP


How the values were obtained:
deglycosylated FMOD = biological target: T1, deglycosylated FMOD; test: microtitre plate assay, deglycosylated against untreated FMOD coated
fibromodulin = biological target: T2, fibromodulin; test: plate assay: FMOD coated on microtitre wells at 10 ug/ml, biotinylated protein in fluid phase, detection with streptavidin peroxidase kit, A490, background subtracted
Procedure: FIG. 12: Binding of FHCCP6-8(H384), FHCCP6-8(Y384) and full length FH to FMOD. A. FMOD was coated in microtitre plate wells at a concentration of 10 μg/ml. BSA was used as the negative coating control. FHCCP6-8(H384) and FHCCP6-8(Y384) recombinant proteins or full length FH were incubated in fluid phase and bound protein was detected with a specific polyclonal antibody. B. FMOD was coated in microtitre plate wells as described for A. Biotinylated versions of FHCCP6-8(H384) and FHCCP6-8(Y384) were incubated in the wells and bound protein was detected with a streptavidin peroxidase kit. C. Untreated (glycosylated) and N-glycosidase F-treated FMOD were assessed for binding full length FH in a microtitre plate based binding assay. Bound protein was detected with a specific polyclonal antibody. […]
CRP or FMOD was coated overnight at 4° C. onto microtiter plates (Maxisorp, Nunc) at a concentration of 10 μg/ml in 75 mM sodium carbonate buffer, pH 9.6. […] The amount of bound protein was assessed using a goat polyclonal anti-FH antibody (Quidel, Cat # A312) followed by HRP-labeled anti-goat secondary antibodies (Dako) and the OPD development kit (Dako). Detection of biotinylated protein was performed using a StreptABComplex/HRP-kit from Dako, and in both cases the absorbance at 490 nm was measured to quantify protein binding.

C-reactive protein = biological target: T3, C-reactive protein; test: plate assay: CRP coated on microtitre wells (10 ug/ml), unlabelled protein in fluid phase, detection with goat polyclonal anti-FH antibody and HRP secondary, A490, background subtracted
Procedure: CRP or FMOD was coated overnight at 4° C. onto microtiter plates (Maxisorp, Nunc) at a concentration of 10 μg/ml in 75 mM sodium carbonate buffer, pH 9.6. Wells treated only with coating buffer or 1% (w/v) BSA (Sigma) in coating buffer (for the assays involving FMOD) were used as negative controls. Between each step the wells were washed extensively with 50 mM Tris-HCl, 150 mM NaCl, 0.1% (v/v) Tween 20, pH 7.5. All wells were blocked with 1% (w/v) BSA (Sigma) in phosphate buffered saline (Invitrogen) for 1 hour at 37° C. FHCCP6-8(H384) and FHCCP6-8(Y384) were added at varrying concentrations in the binding buffer (50 mM HEPES, 100 mM NaCl, 2 mM CaCl₂, pH 7.4); full length FH served as a positive control. In the experiments with FMOD, 50 μg/ml BSA was included in the binding buffer. The amount of bound protein was assessed using a goat polyclonal anti-FH antibody (Quidel, Cat # A312) followed by HRP-labeled anti-goat secondary antibodies (Dako) and the OPD development kit (Dako). Detection of biotinylated protein was performed using a StreptABComplex/HRP-kit from Dako, and in both cases the absorbance at 490 nm was measured to quantify protein binding.

Binder	binding result (deglycosylated FMOD)	binding result (fibromodulin)	EC50 (read off the curve) (C-reactive protein) [µg/mL]
FHCCP6-8(Y384) (other, in some assays biotinylated with EZlink N-hydroxysuccinimide-LC Biotin (sites not given), Made by site-directed mutagenesis (H384Y) of FHCCP6-8(H384); also called FHCCP68 (Y384 allotype); Y384 variant) GTLKPCDYPDIKHGGLYHENMRRPYFPVAVGKYYSYYCDEHFETPSGSYWDHIHCTQDGWSPAVPCLRKCYFPYLENGYNQNYGRKFVQGKSIDVACHPGYALPKAQTTVTCMENGWSPTPRCIRVKTCSKSSIDIENGFISESQYTYALKEKAKYQCKLGYVTADGETSGSITCGKDGWSAQPTCI	binds	binds	~1
FHCCP6-8(H384) (other, in some assays biotinylated with EZlink N-hydroxysuccinimide-LC Biotin (sites not given), Used unlabelled (detected with a goat polyclonal anti-FH antibody) or biotinylated; also called FHCCP68 (H384 allotype); H384 variant) GTLKPCDYPDIKHGGLYHENMRRPYFPVAVGKYYSYYCDEHFETPSGSYWDHIHCTQDGWSPAVPCLRKCYFPYLENGYNQNHGRKFVQGKSIDVACHPGYALPKAQTTVTCMENGWSPTPRCIRVKTCSKSSIDIENGFISESQYTYALKEKAKYQCKLGYVTADGETSGSITCGKDGWSAQPTCI	binds	binds	–
